Experiment: yeast display, Sf9 membrane polyspecificity reagent, FACS + sequencing; frameworks hold sequencing errors
In short: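 A nanobody's polyreactivity label depends on the gate it was sorted from. Yeast display cells were stained with 10% biotinylated, detergent-solubilized Sf9 membrane reagent for 1 hour at 4 °C, enriched on streptavidin microbeads and sorted by FACS. The low and high (top ~1%) gates were set on anti-HA fluorescence for expression and streptavidin fluorescence for reagent binding.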

QVQLVESGGGLVQAGGSLRLSCAASGFIFYRYVMGWFRQAPGKERELVAAISGRGGSTYYADSVKGRFTISRDNAKNTVYLQMNSLTPEDTAVYYCNRLVYRAAGGPMDYWGQGTQVTVSS
polyreactivity (PSR sort gate): high polyreactivity

QVQLVESGGGLVQAGGSLRLSCAASGFIFYSNAMGWYRQAPGKERELVAAISRGGGSTYYADSVKGRFTISRDNAKNTVYLQMNSLKPEDTAVYYCAAELYRWYYYWGQGTQVTVSS
polyreactivity (PSR sort gate): high polyreactivity

QVQLVESGGGLVQAGGSLRLSCAASGFIFYSNAMGWYRQAPGKERELVAAISWDAGSTYYADSVKGRFTISRDNAKNTVYLQMNSLKPEDTAVYYCATDRIVGRYIYNNWGQGTQVTVSS
polyreactivity (PSR sort gate): high polyreactivity

QVQLVESGGGLVQAGGSLRLSCAASGFIFYSNMGWYRQARGKEREFVAAITWRGGSTYADSVKGRFTISRDNAKNTVYLQMNSLKPEDTAVYYCARESYRAHTPGHPSGTRFGYWGQGTQVTVSS
polyreactivity (PSR sort gate): high polyreactivity

QVQLVESGGGLVQAGGSLRLSCAASGFIFYTYAMGWYRQAPGKERELGADITSGGSTYYADSVKGRFTISRDNAKNTVYLQMNSLKPEDTAVYYCAADPGYPANRTEWRDFDYWGQGTQVTVSS
polyreactivity (PSR sort gate): low polyreactivity

QVQLVESGGGLVQAGGSLRLSCAASGFIFYVYAMGWYRQAPGKERELVATITSGGSTNYADSVKGRFTISRDNAKNTVYLQMNSLKPEDTAVYYCAADGWQSQYEYDYWGQGTQVTVSS
polyreactivity (PSR sort gate): low polyreactivity

QVQLVESGGGLVQAGGSLRLSCAASGFIFYWYAMGWYRQAPWKEREFVAAISSSGGNTSYADSVKGRFTISRDNAKNTVYLQMNSLKPEVTAVYYCAATSRAFYRSLYYYWGQGTQVTVSS
polyreactivity (PSR sort gate): low polyreactivity

QVQLVESGGGLVQAGGSLRLSCAASGFIFYYNAMGWYRQAPGKERELVAAISSRGGSTYYADSVKGRFTISRDNAKNTVYLQMNSLKPEDTAVYYCNAKRYFRNHFRTGGMYYWGQGTQVTVSS
polyreactivity (PSR sort gate): high polyreactivity

QVQLVESGGGLVQAGGSLRLSCAASGFIFYYNAMGWYRQAPGKERELVAGISRSAGSTYYADSVKGRFTISRDNAKNTVYLQMNSLKPEDTAVYYCNAEVYGGRYYVDMYYWGQGTQVTVSS
polyreactivity (PSR sort gate): low polyreactivity

QVQLVESGGGLVQAGGSLRLSCAASGFIFYYYAMGWYRQAPGKEREFVAGISRSGGSTYYADSVKGRFTISRDNAKNTVYLQMKSLKPEDTAVYYCAARYVQHKIYRLAQGEYWGQGTQVTVSS
polyreactivity (PSR sort gate): high polyreactivity

QVQLVESGGGLVQAGGSLRLSCAASGFIFYYYAMGWYRQAPGKERELVAAISTSGGSTYYADSVKGRFTISRDNAKNTVYLQMNSLKPEDTAVYYCAAKIIGRPRTTDRYDYWGQGTQVTVSS
polyreactivity (PSR sort gate): low polyreactivity

QVQLVESGGGLVQAGGSLRLSCAASGFIFYYYAMGWYRQAPGKERELVAAISWSGARTYYADSVKGRFTISRDNAKNTVYLQMNSLKPEDTAVYYCNAVAFYPRSSRSWRLDYWGQGTQVTVSS
polyreactivity (PSR sort gate): high polyreactivity

QVQLVESGGGLVQAGGSLRLSCAASGFIFYYYAMGWYRQAPGKERELVAAISWSGGITYYADSVKGRFTISRDNAKNTVYLQMNSLKPEDTAVYYCNAVSSGDMDYWGQGTQVTVSS
polyreactivity (PSR sort gate): high polyreactivity

QVQLVESGGGLVQAGGSLRLSCAASGFIFYYYAMGWYRQAPGKERELVAAISWSGGRTYYADSVKGRFTISRDNAKNTVYLQMNSLKPEDTAVYYCAAVGYSKRYIYWGQGTQVTVSS
polyreactivity (PSR sort gate): high polyreactivity

QVQLVESGGGLVQAGGSLRLSCAASGFIFYYYAMGWYRQAPGKERELVAAITQGGGSTYYADSVKGRFTISRDNAKNTVYLQMNSLKPEDTAVYYCAAVKRVYAHSRAFSSDFYYWGQGTQVTVSS
polyreactivity (PSR sort gate): high polyreactivity

QVQLVESGGGLVQAGGSLRLSCAASGFIFYYYDMGWYRQAPGKERELVAAITYDGGSTYYADSVKGRFTISRDNAKNTVYLQMNSLKPEDTAVYYCNAVYGQYYDYWGQGTQVTVSS
polyreactivity (PSR sort gate): low polyreactivity

QVQLVESGGGLVQAGGSLRLSCAASGFIFYYYTMGWYRQEPGKEREFVAAITYSGGRTYYADSVKGRFTISRDNAKNTVYLQMNSLKPEDTAVYYCAVALFETGHYYWGQGTQVTVSS
polyreactivity (PSR sort gate): high polyreactivity

QVQLVESGGGLVQAGGSLRLSCAASGFIIANNAMGWYRQAPGKERELVASIRTRGGSTYYADSVKGRFTISRDNAKNTVYLQMNSLKPEDTAVYYSAARPFPRRYDYWGQGTQVTVSS
polyreactivity (PSR sort gate): low polyreactivity

QVQLVESGGGLVQAGGSLRLSCAASGFIIAYYAMGWYRQAPGKEREWVAAITSDGGSTYYADSVKGRFTISRDNAKNTVYLQMNSLKPEDTAVYYCAAQGYPYGRLWGGYYRYDYWGQGTQVTVSS
polyreactivity (PSR sort gate): high polyreactivity

QVQLVESGGGLVQAGGSLRLSCAASGFIIGFNAMGWYRQAPGKERELVAAISGSGGRTYYADSVKGRFTISRDNAKNTVYLQMNSLKPEDTAVYYCAKVGYKSPYLYSQHYTGFGYWGQGTQVTVSS
polyreactivity (PSR sort gate): high polyreactivity

QVQLVESGGGLVQAGGSLRLSCAASGFIIGRNAMGWYRQAPGKERELVAAMSTSGASTYYADSVKGRFTISRDNAKNTVYFQMNSLKPEDTAVYYCAARRPVWDGRGSGYDYWGQGTQVTVSS
polyreactivity (PSR sort gate): low polyreactivity

QVQLVESGGGLVQAGGSLRLSCAASGFIIGVYAMGWYRQAPGKEREFVAAISLTGGSTSYADSVKGLFTISRDNAKNTVYLQMNSLKREDTAVYYCAADAWFWVRWGENYWGQGTQVTVSS
polyreactivity (PSR sort gate): low polyreactivity

Source: the nanobody polyreactivity screen of Harvey et al. (2022)
